From PMC4711005, “LRRK2 phosphorylates pre-synaptic N-ethylmaleimide sensitive fusion (NSF) protein enhancing its ATPase activity and SNARE complex disassembling rate” (Molecular Neurodegeneration, 2016)
Substitutions are numbered along the chain they refer to. Names may count otherwise.

B1: Flag-NSF full-length (human, aa 1-744) (enzyme, UniProt P46459 1-744, looked up)
chain: MAGRSMQAARCPTDELSLTNCAVVNEKDFQSGQHVIVRTSPNHRYTFTLKTHPSVVPGSIAFSLPQRKWAGLSIGQEIEVSLYTFDKAKQCIGTMTIEIDFLQKKSIDSNPYDTDKMAAEFIQQFNNQAFSVGQQLVFSFNEKLFGLLVKDIEAMDPSILKGEPATGKRQKIEVGLVVGNSQVAFEKAENSSLNLIGKAKTKENRQSIINPDWNFEKMGIGGLDKEFSDIFRRAFASRVFPPEIVEQMGCKHVKGILLYGPPGCGKTLLARQIGKMLNAREPKVVNGPEILNKYVGESEANIRKLFADAEEEQRRLGANSGLHIIIFDEIDAICKQRGSMAGSTGVHDTVVNQLLSKIDGVEQLNNILVIGMTNRPDLIDEALLRPGRLEVKMEIGLPDEKGRLQILHIHTARMRGHQLLSADVDIKELAVETKNFSGAELEGLVRAAQSTAMNRHIKASTKVEVDMEKAESLQVTRGDFLASLENDIKPAFGTNQEDYASYIMNGIIKWGDPVTRVLDDGELLVQQTKNSDRTPLVSVLLEGPPHSGKTALAAKIAEESNFPFIKICSPDKMIGFSETAKCQAMKKIFDDAYKSQLSCVVVDDIERLLDYVPIGPRFSNLVLQALLVLLKKAPPQGRKLLIIGTTSRKDVLQEMEMLNAFSTTIHVPNIATGEQLLEALELLGNFKDKERTTIAQQVKGKKVWIGIKKLLMLIEMSLQMDPEYRVRKFLALLREEGASPLDFD
notes: N-ethylmaleimide sensitive fusion protein (NSF), human, full-length, aa 1-744; Cloned into the p3XFLAG-CMV-7.1 vector; also called 3xFlag-NSF wt; NSF wild-type; source: kept on the resin or eluted with 3xFlag peptide; also in HEK293T lysate; not shown: Flag, N-terminal, kept
B2: NSF T645A (enzyme, human, UniProt P46459 1-744, looked up)
chain: B1 chain with T645A
notes: NSF, human, phospho-deficient mutant T645A of the NSF wild-type construct (full-length aa 1-744), made by QuickChange mutagenesis; source: HEK293T, expressed and purified

Target: the molecule itself
Test: negative-stain transmission electron microscopy; purified NSF incubated with 1 mM ATP and 2 mM MgCl2, adsorbed to carbon-coated grids, stained with 1 % uranyl acetate

| Protein | stoichiometry N |
| --- | --- |
| B1 | 6 |
| B2 | 6 |
